Results from patent publication US9937235B2, “Lipidated peptides as anti-obesity agents” (USTAV ORGANICKE CHEMIE A BIOCHEMIE AKADEMIE VED CR, V.V.I, priority 2012, dated 2018).
Like-named read-outs stand apart in the source and are kept apart here. Where a SMILES comes first, the peptide text is derived from it. Where no end group is shown, it is not given here. [ ]: non-standard residue; d: D form. The star is where a group is joined. Palmitoyl = CCCCCCCCCCCCCCCC(=O)*; Tridecanoyl = CCCCCCCCCCCCC(=O)*; Myristoyl = CCCCCCCCCCCCCC(=O)*; NMeA = CN[C@@H](C)C(=O)O; Nle = CCCC[C@H](N)C(=O)O; Dap = NC[C@H](N)C(=O)O

T1: rat PrRP receptor (GPR10) in RC-4B/C cells (Rattus norvegicus, UniProt Q64121)
T1 construct: host or cells: RC-4B/C rat pituitary cell line
T1 sequence (Q64121 1-370): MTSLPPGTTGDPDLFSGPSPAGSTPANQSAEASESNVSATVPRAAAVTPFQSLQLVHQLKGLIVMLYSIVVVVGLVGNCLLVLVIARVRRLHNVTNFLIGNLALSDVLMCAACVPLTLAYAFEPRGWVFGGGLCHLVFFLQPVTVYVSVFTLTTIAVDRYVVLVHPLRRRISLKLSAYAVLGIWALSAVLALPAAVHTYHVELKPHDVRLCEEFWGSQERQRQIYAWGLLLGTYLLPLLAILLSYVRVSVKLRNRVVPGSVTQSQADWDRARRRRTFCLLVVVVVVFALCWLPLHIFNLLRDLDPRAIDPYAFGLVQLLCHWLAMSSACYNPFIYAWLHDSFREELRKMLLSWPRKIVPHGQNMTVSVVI

T2: rat PrRP receptor in RC-4B/C cells (rat, UniProt Q64121 1-370)
T2 construct: whole, on cells; also called the rat receptor; GPR10
T2 sequence (looked up): T1 sequence (Q64121 1-370)

B1: analog no. 4 (peptide)
peptide: [Dap](Tridecanoyl)RAHQHS[Nle]ETRTPDINPAWYTGRGIRPVGRF-NH2
modifications: N-terminus assumed
SMILES: CCCCCCCCCCCCC(=O)NC[C@H](N)C(=O)N[C@@H](CCCNC(=N)N)C(=O)N[C@@H](C)C(=O)N[C@@H](Cc1c[nH]cn1)C(=O)N[C@@H](CCC(N)=O)C(=O)N[C@@H](Cc1c[nH]cn1)C(=O)N[C@@H](CO)C(=O)N[C@@H](CCCC)C(=O)N[C@@H](CCC(=O)O)C(=O)N[C@H](C(=O)N[C@@H](CCCNC(=N)N)C(=O)N[C@H](C(=O)N1CCC[C@H]1C(=O)N[C@@H](CC(=O)O)C(=O)N[C@H](C(=O)N[C@@H](CC(N)=O)C(=O)N1CCC[C@H]1C(=O)N[C@@H](C)C(=O)N[C@@H](Cc1c[nH]c2ccccc12)C(=O)N[C@@H](Cc1ccc(O)cc1)C(=O)N[C@H](C(=O)NCC(=O)N[C@@H](CCCNC(=N)N)C(=O)NCC(=O)N[C@H](C(=O)N[C@@H](CCCNC(=N)N)C(=O)N1CCC[C@H]1C(=O)N[C@H](C(=O)NCC(=O)N[C@@H](CCCNC(=N)N)C(=O)N[C@@H](Cc1ccccc1)C(N)=O)C(C)C)[C@@H](C)CC)[C@@H](C)O)[C@@H](C)CC)[C@@H](C)O)[C@@H](C)O
notes: analog of rat PrRP31
B2: analog no. 10 (peptide)
peptide: Myristoyl-TPDINPAWYTGRGIRPVGRF-NH2
SMILES: CCCCCCCCCCCCCC(=O)N[C@H](C(=O)N1CCC[C@H]1C(=O)N[C@@H](CC(=O)O)C(=O)N[C@H](C(=O)N[C@@H](CC(N)=O)C(=O)N1CCC[C@H]1C(=O)N[C@@H](C)C(=O)N[C@@H](Cc1c[nH]c2ccccc12)C(=O)N[C@@H](Cc1ccc(O)cc1)C(=O)N[C@H](C(=O)NCC(=O)N[C@@H](CCCNC(=N)N)C(=O)NCC(=O)N[C@H](C(=O)N[C@@H](CCCNC(=N)N)C(=O)N1CCC[C@H]1C(=O)N[C@H](C(=O)NCC(=O)N[C@@H](CCCNC(=N)N)C(=O)N[C@@H](Cc1ccccc1)C(N)=O)C(C)C)[C@@H](C)CC)[C@@H](C)O)[C@@H](C)CC)[C@@H](C)O
notes: myristoylated rat PrRP20
B3: analog no. 5 (peptide)
peptide: [Dap](Myristoyl)RAHQHS[Nle]ETRTPDINPAWYTGRGIRPVGRF-NH2
modifications: N-terminus assumed
SMILES: CCCCCCCCCCCCCC(=O)NC[C@H](N)C(=O)N[C@@H](CCCNC(=N)N)C(=O)N[C@@H](C)C(=O)N[C@@H](Cc1c[nH]cn1)C(=O)N[C@@H](CCC(N)=O)C(=O)N[C@@H](Cc1c[nH]cn1)C(=O)N[C@@H](CO)C(=O)N[C@@H](CCCC)C(=O)N[C@@H](CCC(=O)O)C(=O)N[C@H](C(=O)N[C@@H](CCCNC(=N)N)C(=O)N[C@H](C(=O)N1CCC[C@H]1C(=O)N[C@@H](CC(=O)O)C(=O)N[C@H](C(=O)N[C@@H](CC(N)=O)C(=O)N1CCC[C@H]1C(=O)N[C@@H](C)C(=O)N[C@@H](Cc1c[nH]c2ccccc12)C(=O)N[C@@H](Cc1ccc(O)cc1)C(=O)N[C@H](C(=O)NCC(=O)N[C@@H](CCCNC(=N)N)C(=O)NCC(=O)N[C@H](C(=O)N[C@@H](CCCNC(=N)N)C(=O)N1CCC[C@H]1C(=O)N[C@H](C(=O)NCC(=O)N[C@@H](CCCNC(=N)N)C(=O)N[C@@H](Cc1ccccc1)C(N)=O)C(C)C)[C@@H](C)CC)[C@@H](C)O)[C@@H](C)CC)[C@@H](C)O)[C@@H](C)O
notes: analog of rat PrRP31; also called [Dpr(myr)^1]PrRP31; myristoylated analog [Dpr^1]PrRP31 (No. 5)

Experiments:
[1] = molecular target: T1, rat PrRP receptor (GPR10) in RC-4B/C cells; experiment: Competitive binding to rat pituitary RC-4B/C cells
Description: Competitive binding experiments were performed according to Motulsky and Neubig (Motulsky, A., et al., “Analyzing radioligand binding data,” Curr Protoc Neurosci, Chapter 7, Unit 7.5, 2002). The rat pituitary cell line RC-4B/C (ATCC, Manassas, USA) was grown on 24-well plates which had their bottom coated with polyethyleneimine. The cells were grown to the optimal density of 300-450 thousand per well. […] Plates were incubated for 60 minutes at room temperature. After incubation, the cells were solubilized in 0.1 mol/l solution of NaOH and the radioactivity bound to the cells was counted using a γ-counter. The experiments were performed in duplicate and repeated at least three times. For evaluation of competitive binding experiments, the program Graph Pad Prism Software (San Diego, Calif., USA) was used. A method of nonlinear regression assuming one-site binding was used.

[2] = system: fasted C57BL/6 mice; experiment: Food intake in fasted mice after SC administration; assay type: in vivo, mouse; conditions: fasted C57BL/6 mice, 5 mg/kg SC, 45 min
Outline: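 Male C57BL/6 mice, food-deprived 17 h, received saline, PrRP or lipidated analogs either SC at 1-10 mg/kg or ICV into the third ventricle at 4 nmol/mouse.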

[3] = molecular target: T2, rat PrRP receptor in RC-4B/C cells; experiment: competition with 125I-rat PrRP31 on RC-4B/C cells
Description: (§1) The rat pituitary cell line RC-4B/C (ATCC, Manassas, USA) was grown on 24-well plates which had their bottom coated with polyethyleneimine. The cells were grown to the optimal density of 300-450 thousand per well.
(§2) Plates were incubated for 60 minutes at room temperature. After incubation, the cells were solubilized in 0.1 mol/l solution of NaOH and the radioactivity bound to the cells was counted using a γ-counter. The experiments were performed in duplicate and repeated at least three times.

[4] = molecular target: T2, rat PrRP receptor in RC-4B/C cells; experiment: competition with 125I-rat PrRP31 on RC-4B/C cells; Ki by Cheng-Prusoff
Description: as §1, §2
For evaluation of competitive binding experiments, the program Graph Pad Prism Software (San Diego, Calif., USA) was used. A method of nonlinear regression assuming one-site binding was used.

[5] = rat RC-4B/C cells, Table 5, read-out: C-4B/C cells ^25I-rat PrRP31 Ki

| Molecule | Ki ([1]; ^125I-rat PrRP31, RC-4B/C cells, Table 3, read-out: ^125I-rat PrRP31 Ki) | Ki [1, 5] | Food intake in mice (5 mg/kg SC) % saline-treated group (45 min) [2] | % of PrRP31 binding [3] | Ki [4] |
| --- | --- | --- | --- | --- | --- |
| CCCCCCCCCCCCCC(=O)N[C@H](C(=O)N1CCC[C@H]1C(=O)N[C@@H](CC(=O)O)C(=O)N[C@H](C(=O)N[C@@H](CC(N)=O)C(=O)N1CCC[C@H]1C(=O)N[C@@H](C)C(=O)N[C@@H](Cc1c[nH]c2ccccc12)C(=O)N[C@@H](Cc1ccc(O)cc1)C(=O)N[C@@H](C)C(=O)N[C@@H](CO)C(=O)N[C@@H](CCCNC(=N)N)C(=O)NCC(=O)N[C@H](C(=O)N[C@@H](CCCNC(=N)N)C(=O)N1CCC[C@H]1C(=O)N[C@H](C(=O)NCC(=O)N[C@@H](CCCNC(=N)N)C(=O)N[C@@H](Cc1ccccc1)C(N)=O)C(C)C)[C@@H](C)CC)[C@@H](C)CC)[C@@H](C)O [Analog 13] (Myristoyl-TPDINPAWYASRGIRPVGRF-NH2) | 0.41 ± 0.13 nM |  |  |  |  |
| CCCCCCCCCCCCCCCC(=O)N[C@@H](CO)C(=O)N[C@@H](CCCNC(=N)N)C(=O)N[C@@H](C)C(=O)N[C@@H](Cc1c[nH]cn1)C(=O)N[C@@H](CCC(N)=O)C(=O)N[C@@H](Cc1c[nH]cn1)C(=O)N[C@@H](CO)C(=O)N[C@@H](CCCC)C(=O)N[C@@H](CCC(=O)O)C(=O)N[C@H](C(=O)N[C@@H](CCCNC(=N)N)C(=O)N[C@H](C(=O)N1CCC[C@H]1C(=O)N[C@@H](CC(=O)O)C(=O)N[C@H](C(=O)N[C@@H](CC(N)=O)C(=O)N1CCC[C@H]1C(=O)N[C@@H](C)C(=O)N[C@@H](Cc1c[nH]c2ccccc12)C(=O)N[C@@H](Cc1ccc(O)cc1)C(=O)N[C@H](C(=O)NCC(=O)N[C@@H](CCCNC(=N)N)C(=O)NCC(=O)N[C@H](C(=O)N[C@@H](CCCNC(=N)N)C(=O)N1CCC[C@H]1C(=O)N[C@H](C(=O)NCC(=O)N[C@@H](CCCNC(=N)N)C(=O)N[C@@H](Cc1ccccc1)C(N)=O)C(C)C)[C@@H](C)CC)[C@@H](C)O)[C@@H](C)CC)[C@@H](C)O)[C@@H](C)O [Analog 19] (Palmitoyl-SRAHQHS[Nle]ETRTPDINPAWYTGRGIRPVGRF-NH2) |  | 0.51 ± 0.16 nM | 2% |  |  |
| CCCCCCCCCCCCCC(=O)N[C@H](C(=O)N1CCC[C@H]1C(=O)N[C@@H](CC(=O)O)C(=O)N[C@H](C(=O)N[C@@H](CC(N)=O)C(=O)N1CCC[C@H]1C(=O)N[C@@H](C)C(=O)N[C@@H](Cc1c[nH]c2ccccc12)C(=O)N[C@@H](Cc1ccc(O)cc1)C(=O)N(C)[C@@H](C)C(=O)N[C@@H](CO)C(=O)N[C@@H](CCCNC(=N)N)C(=O)NCC(=O)N[C@H](C(=O)N[C@@H](CCCNC(=N)N)C(=O)N1CCC[C@H]1C(=O)N[C@H](C(=O)NCC(=O)N[C@@H](CCCNC(=N)N)C(=O)N[C@@H](Cc1ccccc1)C(N)=O)C(C)C)[C@@H](C)CC)[C@@H](C)CC)[C@@H](C)O [Analog 41] (Myristoyl-TPDINPAWY[NMeA]SRGIRPVGRF-NH2) |  | 0.46 ± 0.05 nM |  |  |  |
| CCCCCCCCCCCCCCCC(=O)N[C@@H](CO)C(=O)N[C@@H](CCCNC(=N)N)C(=O)N[C@@H](C)C(=O)N[C@@H](Cc1c[nH]cn1)C(=O)N[C@@H](CCC(N)=O)C(=O)N[C@@H](Cc1c[nH]cn1)C(=O)N[C@@H](CO)C(=O)N[C@@H](CCSC)C(=O)N[C@@H](CCC(=O)O)C(=O)N[C@H](C(=O)N[C@@H](CCCNC(=N)N)C(=O)N[C@H](C(=O)N1CCC[C@H]1C(=O)N[C@@H](CC(=O)O)C(=O)N[C@H](C(=O)N[C@@H](CC(N)=O)C(=O)N1CCC[C@H]1C(=O)N[C@@H](C)C(=O)N[C@@H](Cc1c[nH]c2ccccc12)C(=O)N[C@@H](Cc1ccc(O)cc1)C(=O)N[C@H](C(=O)NCC(=O)N[C@@H](CCCNC(=N)N)C(=O)NCC(=O)N[C@H](C(=O)N[C@@H](CCCNC(=N)N)C(=O)N1CCC[C@H]1C(=O)N[C@H](C(=O)NCC(=O)N[C@@H](CCCNC(=N)N)C(=O)N[C@@H](Cc1ccccc1)C(N)=O)C(C)C)[C@@H](C)CC)[C@@H](C)O)[C@@H](C)CC)[C@@H](C)O)[C@@H](C)O [Analog 61] (Palmitoyl-SRAHQHSMETRTPDINPAWYTGRGIRPVGRF-NH2) |  | 0.41 ± 0.12 nM | 2% |  |  |
| B1 |  |  |  | 967% | 0.51 nM |
| TPDINPAWYTGRGIRPVGRF-NH2 [Rat PrRP20] |  |  |  | 143% | 3.44 nM |
| B2 |  |  |  | 632% | 0.78 nM |
| B3 |  |  |  | 601% | 0.82 nM |
| SRAHQHSMETRTPDINPAWYTGRGIRPVGRF-NH2 (also called prolactin-releasing peptide) [Rat PrRP31] |  |  |  | 100% | 4.93 nM |
